We go through two molecules from paper PMC12691273.

This experiment addresses T1, 14-3-3 protein, Q5ZKC9.
T1 chain: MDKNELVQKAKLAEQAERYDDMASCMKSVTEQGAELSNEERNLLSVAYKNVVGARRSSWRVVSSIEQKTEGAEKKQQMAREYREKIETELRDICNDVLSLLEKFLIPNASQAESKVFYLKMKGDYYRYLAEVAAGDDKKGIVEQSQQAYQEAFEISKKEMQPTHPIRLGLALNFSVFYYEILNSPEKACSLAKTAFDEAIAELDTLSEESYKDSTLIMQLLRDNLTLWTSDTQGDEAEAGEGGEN
Kind of experiment: co-immunoprecipitation (IP FOXO1, WB 14-3-3), band quantification. As to conditions: chain shown with the change; chicken granulosa cells, with 740-Y-P; n = 3; parent: est. 3.7; read off a plot.

B1: chicken forkhead box O1 (FOXO1) wild-type, A0A8V0XGP1 S311A (protein)
chain: MAEAPQLVDIDPDFEPLPRPRSCTWPLPRPEFNPPSSATSSPAPSCGGQPDGAAAAGAAVAVAASGALSADFISNLCLVEESEDFALPPAAAAPPESAACRCGDFSAPEAGCRLHPPGPPPVPPVPPAVAALSPGPVAGQPRKSSSSRRNAWGNLSYADLITKAIESSPEKRLTLSQIYEWMVKSVPYFKDKGDSNSSAGWKNSIRHNLSLHSKFIRVQNEGTGKSSWWMLNPEGGKSGKSPRRRAASMDNNSKFAKSRGRAAKKKASLQSGQEGNGDSPGSQFSKWPASPSSHSNDDFDNWSTFRPRTSANASTISGRLSPILPEQDDLGDGDVHSMVYPSSATKMTSTLPSLSEMSSSENMENLLDNLNLLSPNTSMTVSTQSSSAALMQQTPGYSFASSTTSICSPNPDYRKFTYAQASMNSLPQIPMQTLQDSKSSYGSMSQFNCPAGLLKELLTSDSPPHNDILASVDTGVSQAGGRALGQGVLMVTNSVMPTYGNQPPHNKMMNPNARPHQGHNQPTPAVNGRALSHTVNPMSHTSCLNRLSTVKTSLQVPMSHQMQMNAMNPYAPVNSCNGYGRVGIVSLHQEKLPSDLDDMLIERLDCDMESIIRNDLMDGETLDFNFDSVLPNQSFQHSVKTTTHSWVSG
Consider B1, for which the response came out at 3.7.

B2: chicken forkhead box O1 (FOXO1) wild-type, A0A8V0XGP1 S248A (protein)
chain: MAEAPQLVDIDPDFEPLPRPRSCTWPLPRPEFNPPSSATSSPAPSCGGQPDGAAAAGAAVAVAASGALSADFISNLCLVEESEDFALPPAAAAPPESAACRCGDFSAPEAGCRLHPPGPPPVPPVPPAVAALSPGPVAGQPRKSSSSRRNAWGNLSYADLITKAIESSPEKRLTLSQIYEWMVKSVPYFKDKGDSNSSAGWKNSIRHNLSLHSKFIRVQNEGTGKSSWWMLNPEGGKSGKSPRRRAAAMDNNSKFAKSRGRAAKKKASLQSGQEGNGDSPGSQFSKWPASPSSHSNDDFDNWSTFRPRTSSNASTISGRLSPILPEQDDLGDGDVHSMVYPSSATKMTSTLPSLSEMSSSENMENLLDNLNLLSPNTSMTVSTQSSSAALMQQTPGYSFASSTTSICSPNPDYRKFTYAQASMNSLPQIPMQTLQDSKSSYGSMSQFNCPAGLLKELLTSDSPPHNDILASVDTGVSQAGGRALGQGVLMVTNSVMPTYGNQPPHNKMMNPNARPHQGHNQPTPAVNGRALSHTVNPMSHTSCLNRLSTVKTSLQVPMSHQMQMNAMNPYAPVNSCNGYGRVGIVSLHQEKLPSDLDDMLIERLDCDMESIIRNDLMDGETLDFNFDSVLPNQSFQHSVKTTTHSWVSG
As to B2, the response was 2.7.
